From PMC8848936 (RNA, 2022)

Molecular target: T1, Tsr1–TAP (S. cerevisiae, UniProt Q07381 1-788)
T1 sequence (looked up): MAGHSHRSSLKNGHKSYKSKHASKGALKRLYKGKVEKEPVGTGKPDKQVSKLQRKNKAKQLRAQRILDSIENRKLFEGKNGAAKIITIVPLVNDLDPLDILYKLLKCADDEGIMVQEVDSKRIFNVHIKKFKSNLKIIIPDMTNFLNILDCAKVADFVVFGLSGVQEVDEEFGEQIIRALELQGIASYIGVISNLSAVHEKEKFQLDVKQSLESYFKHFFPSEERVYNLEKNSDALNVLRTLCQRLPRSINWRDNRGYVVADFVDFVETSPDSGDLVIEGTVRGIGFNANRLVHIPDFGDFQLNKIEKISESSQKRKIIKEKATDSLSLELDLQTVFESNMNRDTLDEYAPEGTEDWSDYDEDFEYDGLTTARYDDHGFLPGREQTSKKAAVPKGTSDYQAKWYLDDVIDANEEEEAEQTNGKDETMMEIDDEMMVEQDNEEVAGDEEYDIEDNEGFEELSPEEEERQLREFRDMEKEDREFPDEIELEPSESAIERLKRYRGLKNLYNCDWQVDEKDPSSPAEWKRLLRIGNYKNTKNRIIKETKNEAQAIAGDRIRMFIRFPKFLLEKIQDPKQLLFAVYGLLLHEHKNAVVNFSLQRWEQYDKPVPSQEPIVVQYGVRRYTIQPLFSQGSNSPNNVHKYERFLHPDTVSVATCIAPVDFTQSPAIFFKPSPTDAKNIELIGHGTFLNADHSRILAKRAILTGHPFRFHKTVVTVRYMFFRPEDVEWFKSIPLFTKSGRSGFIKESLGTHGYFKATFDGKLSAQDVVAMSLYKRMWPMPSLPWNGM
Assay: co-sedimentation

binding result: binds
B1: recombinant Rio2 (Rio2-HA) (natural protein, yeast, UniProt P40160 1-425, looked up)
chain: MKLDTSHMRYLTTDDFRVLQAVEQGSRSHEVVPTPLIHQISGMRSQSGTNRAISDLAKLSLISKMRNVKYDGYRLTYNGIDYLALKTMLNRDTVYSVGNTIGVGKESDIYKVSDKNGNPRVMKIHRLGRTSFHSVRNNRDYLKKSNQGANWMHLSRLAANKEYQFMSMLYSKGFKVPEPFDNSRHIVVMELIEGYPMRRLRKHKNIPKLYSDLMCFIVDLANSGLIHCDFNEFNIMIKDKLEDENDCGFVVIDFPQCISIQHQDADYYFQRDVDCIRRFFKKKLKYEPKPDSSMLDTEGFGDGYKYAYPDFKRDVKRTDNLDELVQASGFSKKHPGDRGLETAVESMRNAVYNSDDDMSNDEAEEENGEGDYSEEDEYYDSELDNESSEDDSEDAQEEENERIIEALSSGVENLKMDKLGNYILE
